Here are results for 1 substance from article doi:10.1101/2023.01.30.525655.

The target in test [1] is MDL1-6xHis (Arabidopsis thaliana MIF/D-DT-like protein 1, hexahistidine-tagged) (Arabidopsis thaliana). Briefly: crystal structure.
Test [2] concerns the target RED-NHS-MIF-6xHis (human MIF-6xHis labelled with the RED-NHS dye) (human) (UniProt P14174). As to the kind of experiment: MST.
The target of test [3] is MDL1-6xHis (Arabidopsis thaliana MIF/D-DT-like protein 1, hexahistidine-tagged) (Arabidopsis thaliana). As to the kind of experiment: SEC. For orientation: SEC sorts molecules by how far they enter the pores of the column.
Test [4] addresses MIF-6xHis (human macrophage migration inhibitory factor, hexahistidine-tagged) (human) (UniProt P14174). As to the kind of experiment: SEC.

Usually stoichiometry N stands for a count of units in the complex or per binding partner. A word on the Kd: it is a measure of binding affinity in units of concentration.

RED-NHS-MIF-6xHis (human MIF-6xHis labelled with the RED-NHS dye) (human), sequence (P14174 2-115): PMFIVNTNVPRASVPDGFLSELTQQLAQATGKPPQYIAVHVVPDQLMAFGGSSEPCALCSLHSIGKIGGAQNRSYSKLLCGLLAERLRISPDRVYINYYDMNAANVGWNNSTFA
MIF-6xHis (human macrophage migration inhibitory factor, hexahistidine-tagged) (human), sequence (P14174 2-115): as above

“MDL1-6xHis (Arabidopsis thaliana MIF/D-DT-like protein 1, hexahistidine-tagged) (natural protein)”: the stoichiometry N in test [1] and in test [3] was 3 in each case. In test [2], this substance registered a Kd of less than 5 µM. Moreover, the fraction of the mixture in the hetero-hexamer in test [4] turned out to be 0.33.
